In the Human Domainome abundance scans (Beltran et al. 2025):

B1: Zinc finger protein ZIC 2, residues 250 to 295; numbered along this chain, O95409 (parent)
chain: QCIKQELICKWIDPEQLSNPKKSCNKTFSTMHELVTHVSVEHVGGP
B2: Nuclear receptor subfamily 1 group D member 2, residues 103 to 171; numbered along this chain, Q14995 (parent)
chain: CKVCGDVASGFHYGVHACEGCKGFFRRSIQQNIQYKKCLKNENCSIMRMNRNRCQQCRFKKCLSVGMSR

Variants of: B1
Experiment: abundance fitness (aPCA) (normalised: wild type 0, dead -1); higher = more abundant; growth selection in yeast, the domain comes from the species named
Conditions: Homo sapiens

Abundance fitness: each site, then its substitutions
V43: E 0.587 | S 0.313 | L -0.299 | W -0.332 | K 0.088 | P 0.129 | G 0.247 | Y 0.485 | T 0.108 | M -0.126 | R 0.226 | F 0.063 | A 0.052 | H 0.012 | Q 0.116
V40: S 0.001 | R -0.134 | W -0.581 | Y -0.275 | T -0.073 | N 0.075
P46: L -0.556 | I -0.976 | C 0.1 | A -0.578 | D 0.004 | K 0.593 | T -0.673 | W -0.709 | H 0.193 | R -0.231 | F -0.736
E41: F -0.405 | I -0.216 | N -0.044 | A -0.07 | G -0.279 | M -0.338 | T 0.032 | L -0.487 | C 0.03 | Y -0.226 | R -0.377 | Q 0.084 | W -0.387 | V -0.125 | S 0.032 | D -0.093 | P -1.04 | K -0.269
H42: L -0.975 | P -1.13 | F -1.04 | G -0.661 | A -0.689 | T -0.89 | W -0.707 | N -1.25 | Q -0.909 | I -0.862 | C -1.16 | S -0.854 | M -0.642 | E -1.07 | D -1.01 | Y -0.971
G45: Y -0.648 | V -0.242 | L -0.149 | C -0.017 | R -0.114 | F -0.202 | H -0.443 | S -0.244 | T -0.093 | K -0.134 | E -0.032 | A 0.035 | D 0.034 | M -0.382 | Q -0.217 | P -0.195 | I 0.133
G44: P -0.217 | I -0.363 | M -0.372 | N -0.019 | H -0.292 | T -0.045 | C -0.062 | W -0.082 | E -0.2 | K -0.142 | Y -0.357 | V -0.273 | Q -0.267 | A -0.006 | R 0.057 | F -0.384 | L -0.641

Variants of: B2
Experiment: as above
Conditions: Homo sapiens

Abundance fitness of substitutions, site by site:
G5: Q -0.476 | S -0.689 | I -0.83 | R -0.824 | F -0.918 | W -0.684 | C -0.769 | H -0.623 | L -0.787 | K -0.5 | D -0.645 | M -0.226 | T -0.802 | P -0.598 | Y -1.11 | E -0.605 | V -0.815 | A -0.621
V7: M -0.032 | T -0.126 | L -0.119 | F -0.061 | C -0.526 | Q 0.118 | R 0.032 | G -0.469 | S -0.083 | W -0.195 | K 0.167 | D -0.001 | P -0.295 | A -0.153 | E 0.057 | N -0.019
C4: L -0.902 | T -0.599 | W -0.83 | V -0.941 | G -0.795 | E -0.687 | A -0.949 | S -0.819
A17: E -0.805 | V -0.222 | N -0.422 | S -0.346 | C 0.092 | T -0.392 | R -0.887 | Q -0.902 | M -0.89 | P -0.962 | W -0.702 | L -0.666
E19: V -0.669 | D 0.114 | Q -0.699 | G -0.63 | P -0.465 | R -0.058 | T -0.478 | Y -0.394 | W -0.325 | M -0.884 | L -0.858 | S -0.583
G14: S -0.291 | D -0.579 | F -0.558 | M -0.759 | T -0.828 | L -0.898 | W -0.878 | A -0.871 | P -0.835
G23: D 0.195 | V -0.041 | R -0.087
A8: L -0.998 | F -0.855 | P -0.893 | V -0.798 | D -0.724 | T -0.363 | R -0.897 | K -0.42 | C -0.494 | G -0.597 | Y -0.782 | Q -0.842 | N -0.476 | M -0.584 | S -0.265
C1: F -0.451 | G -0.939 | E -0.613
F25: I -0.152 | Q -0.797 | D -0.696 | G -0.86 | P -0.836 | A -0.72 | E -0.634 | N -0.647 | L -0.752
V3: G -0.738 | E -0.754 | S -0.161 | D -0.763 | I -0.293 | N -0.78 | A -0.74 | R -1.25
G20: D 0.531 | S 0.212
C18: R -0.751 | W -0.752 | A -0.515 | S -0.812 | I -0.355 | V -0.79 | G -0.813 | L -0.692 | K -0.829 | Q -0.874 | M -0.537 | E -0.847
G10: D -0.433 | V -0.119
V15: D -0.746 | G -0.546 | Y -0.492 | E -0.679 | M -0.753 | T -0.961 | C -0.623 | P -0.67 | S -0.954 | R -0.819 | L -0.3 | N -0.954 | I -0.327 | Q -0.744
F24: P -0.52 | A -1.09 | V -0.81 | S -0.661 | I -1.02 | L -0.272 | Q -0.664 | E -0.68 | K -1.04 | N -0.908 | G -0.798 | W -0.723 | R -0.924 | T -0.422
K2: W -0.673 | E -0.174 | I -0.367 | D -0.482 | S -0.336 | G -0.623 | F -0.53 | R -0.029 | V -0.474 | C -0.578 | T -0.186 | Y -0.7 | Q -0.049 | A 0.016 | N -0.011 | L -0.491 | M -0.401
S9: Y -0.49
D6: A 0.04 | G -0.535 | E -0.06 | K -0.862 | T -0.47 | M -0.345 | Q -0.513 | S -0.706 | V -0.56 | R -0.857 | F -0.694 | L -0.572 | Y -0.445
H12: Q -0.568 | W 0.033 | T -0.546 | A -0.28 | G -0.421 | Y -0.253 | P -0.835 | F -0.514 | N -0.161 | I -0.747 | D -0.44 | M -0.936 | R -0.732 | S -0.301 | E -0.587
H16: F -0.062 | K -0.501 | A -0.169 | N -0.297 | P -0.085 | I -0.306 | T -0.1 | D 0.264 | V -0.008 | G -0.412 | L 0.098 | R -0.162 | C -0.411 | M 0.123 | Y -0.096 | E 0.219
Y13: S -0.576 | P -0.89 | L -0.453 | H -0.145 | W -0.152 | A -0.459 | Q -0.615 | I -0.73 | T -0.572 | M -0.732 | E -0.099 | K -0.491 | F 0.059 | V -0.528 | C -0.496
